Experimental findings from publication PMC9599297, “Graphitic Carbon Nitride and IGZO Bio-FET for Rapid Diagnosis of Myocardial Infarction” are described below.

The data set has as its target cardiac troponin I (cTnI) (UniProt P19429 2-210). As to the kind of experiment: FET aptasensor (IGZO/PCN-Au NPs), drain current change; 47% current change; response 0.01-1000 ng/mL, LOD 0.0066 ng/mL (no Kd); 10 mM PBS pH 7.4 (PBS tablets: 2.7 mM KCl, 137 mM NaCl), 10 min incubation, water wash; surface blocked with MCH and 0.10 mg/mL BSA; temperature not stated. The note with it: protein: commercial.

Sequence of cardiac troponin I (cTnI) (P19429 2-210): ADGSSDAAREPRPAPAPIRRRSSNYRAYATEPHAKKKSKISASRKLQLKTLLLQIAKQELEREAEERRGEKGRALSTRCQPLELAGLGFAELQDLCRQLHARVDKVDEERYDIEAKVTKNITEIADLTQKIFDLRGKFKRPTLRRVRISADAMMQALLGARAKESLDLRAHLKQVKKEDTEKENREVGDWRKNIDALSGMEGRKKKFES

Regarding CGTGCAGTACGCCAACCTTTCTCATGCGCTGCCCCTTA (ssDNA, ThiC6 (thiol-C6) at 5' end, immobilised on Au NPs) [Tro4 anti-cTnI DNA aptamer], the binding result is “binds”.
